In a protein production outcome set (Wang et al. 2014):

Assay: label from the status in PepcDB records

Sequence | protein production
MGGGDGRRIDAFVSYSRAADSRLAPSIQRGLARLAKKWYRTRALNVFRDQTDLSASHALGASIERALADARFFVLLASPAAAESKWVAKEIEFWQRNRTSDTFLVALTDGTIRWDDEAGDFDWSVTDALPRSLSGYFEAEPLWQDLTWSRDADRLSLWHAGFRDAVATLAAPIHGSSKRALDNAEVKEHRALLLVGALATALILTLAVSFGIQYWFATAERDRANANARDATVMSAIQRAQVELADAETGYDVSAYRRLMAARSLAGRPSVEGAAYDAALDAAYSRPNLLRVTEVDSGPDSRAAMTVDGGRVAFGGKEQPTLWSPGTGRPSGPALEAAETTDSKALALAFSRDGKRLAAAYEAAVVLWDVASGKKINEFATDRRTTTSLALSPDGTTVAVAGGGLRIWDAGSGRRIGEPLGVTGDRVVFSPDGRKLAFDALNDGGSEVHVRGVGAEGAGEVVIPYPHDVISGIAFTPDTDALAVGTEDGGLRLWDPDSGAAEGRAMSGHQGAIRAIAFAAGGSRIATAGADRTIRQWNAETGSPIGFPLTGHAGPVDFIAFSRGGSELVSLGEDATLRRWDAGNALLRTGPDDASAPDALAVAPRGAKVAVGGREGVRVFNQETGVQVAALDLPQGVLSLSYSPDGTSLLIVSPDALRLWEEGAEARTVTLDSSVGPVAGAAFMPHGRQIVVGSYAGKLLFEDLDDEATGTPGASIDITCAARHLAVSQDGMQVAYACDDTGGVADAEAGGVRTFEAEDRVSALVISPDGRTLILGTLDGTLWRLEHGAEALVGVGVHRGAVRSVAYGPDGRWFASAGEDGSVVVHPHGAREISARIPAHTGPVEAVAFSGDGSRLISLGADKAARVWHVFRDPPGDLCERITYNMSESDWKKWISDSFGYRDQCAGKPRAHG | failed
MGGGGGSRGPGHAARIAAPPFRPPSPCPAMLAAGEMCGAAHCPARPAPVSCRDRPRRFSSPSPLPGSLFFSPVAAGRRVSRPIFLFCSFGGFCMQRFLTLALLGAAALGGALAQNAAPAPAPAPVAQPAPAPQTAPATPAAQPAAPAVRPPAANYVVVGNLYYDQGKFDQAYVAFRTAAELDPRNTQALLGLGRSQVRLRLYAPAVDTLRRLTTVDPQNVSGYVALSQAYQQQYMGSGDRASVTGNLDAALAVLQQAEAAVTALPEADRALAQSKLLNERGSVYRLQGKPTQAIEAFRQASALNPENSLLLFNLGDMYAASGQLPLAVSALQQAVILDPRDPYNRAYYAKLLALSGNLTSARVEAAQASRLVTGNAYATGQYGVVSYLAGDRTTARTQLAQAVRLDPLRYPEFYYYLGRLDLDGSDLKSARDNLTRAVALNSTSAEYAYYLGLAYERGVPGVAADNVRARENYDKALKLAPGYKQAQEGADRLKPPSSGN | failed
MGGHPQLRLVKALLLLGLNPVSASLQDQHCESLSLASNISGLQCNASVDLIGTCWPRSPAGQLVVRPCPAFFYGVRYNTTNNGYRECLANGSWAARVNYSECQEILNEEKKSKVHYHVAVIINYLGHCISLVALLVAFVLFLRLRPGCTHWGDQADGALEVGAPWSGAPFQVRRSIRCLRNIIHWNLISAFILRNATWFVVQLTMSPEVHQSNVGWCRLVTAAYNYFHVTNFFWMFGEGCYLHTAIVLTYSTDRLRKWMFICIGWGVPFPIIVAWAIGKLYYDNEKCWFGKRPGVYTDYIYQGPMILVLLINFIFLFNIVRILMTKLRASTTSETIQYRKAVKATLVLLPLLGITYMLFFVNPGEDEVSRVVFIYFNSFLESFQGFFVSVFYCFLNSEVRSAIRKRWHRWQDKHSIRARVARAMSIPTSPTRVSFHSIKQSTAV | failed
MGGIPDITPYPLTYSLGGVIPLSSVLEMLWVEKYRPRSLDDIVDQKHVVERLKQFVKQRNMPHLLFAGPPGTGKTTAAHALAHDLFGENYRQYMLELNASDERGINVIREKVKEFARSRTPPEIPFKIVLLDEADNMTSDAQQALRRLMELYSSVTRFILIANYPSKIIDPIQSRCAFFRFQPLSKQDVIERLRYIAENEGVDYEEEALDAIYEISEGDMRKAINVLQAASYLGKVTVDAVYRVVGMAKPREVREMLATALKGDFTAARSLLRKIMIEYGMSGEDVARQIHRELFSTELKMPEELRVLAADYLGEVHYRLVEGSDDDIQLSAFLAWLTMMSRKLEV | not failed
MGGIYRLSLKSTEATAERLSCDTRCNYEDRDLAYSPDGRWLAIARRFSNISEDIFIRDLASAHEKRLTQGLEDIRGLSWTPDSQALVFATEDSGSSNGFTLDINTAQIRSLDVEGMSYPSSVSAEGELVYHQYHRQFQMAYFSLGDKVPGSLFPLLYSGVSHRNPDYSPEAKRIVFVSSETG | failed
MGGKWSTPSFDEAARLVLGRGFHHVSLCAAGYFSDGNETIHRESVLSAIDPSVRVETIPCLNDSPHLIACLAGRVVAASRQILAFSGDLKG | failed
MGGLGYGCHPVPAVLDDEGNQLPDPGRRRTVIHDGSAADRQPGVQHRALADGRRQLARHRLLPGRARRVIAGQGCQRARPRSGEGRRRGVHGDLRHRIRHGPASLPDRGGRGRRAEALLVAEEHAMSRASRHRILAAMLSACLLSLLGGCTPLTVLAVLGGCKDGGSNGSSGGVTGSVTTGEVRDGMTIAQTKAWFNGSDGPDNVCQAYPDGQCTWWACMRGHKIGLDVGSYWGNGGDWAASATAAGWKTTRTDPVAGSIVSYPPGVADADTLYGHVAVVEAVDRTAGTVTISEMNGRGGLGIVNHRTHRINVGAVYILPNGSVSTNGSAGTDSTSSGSESSDSSSSSDSSSSSDPVEAAWTCSSSDSGSTDVVVDYDGDGTHATPEQARAIARKMIASYKDWGDGDYDALVWLWNKESGWQWNATNPSSGAYGIPQALPASKLASAGDDWKDNAATQIKWGLNYIAGRYGSPSAAKTFWLAHNWY | failed
MGGLTLFAAQGCKAPKQVAEQAEHPNIIYVFPDQYRNQAMGFWNQEGFRDKVNFRGDPVHTPNIDTFARESMVLTSAQSNCPLSSPHRGMLLTGMYPNRSGVPLNCNSTRPISSLRDDAECIGDVFSKAGYDCAYFGKLHADFPTPNDPENPGQYVETQRPVWDAYTPKEQRHGFNYWYSYGTFDEHKNPHYWDTDGKRHDPKEWSPLHESGKVVSYLKNEGNVRDTKKPFFIMVGMNPPHSPYRSLNDCEEQDFNLYKDQPLDSLLIRPNVDLNMKKAESVRYYFASVTGVDRAFGQILEALKQLGLDKNTVVIFASDHGETMCSQRTDDPKNSPYSESMNIPFLVRFPGKIQPRVDDLLLSAPDIMPTVLGLCGLGDSIPSEVQGRNFAPLFFDEKAEIVRPAGALYIQNLDGEKDKDGLVQSYFPSSRGIKTARYTLALYIDRKTKQLKKSLLFDDVNDPYQLNNLPLDENKEVVEQLYREMGTMLKEIDDPWYTEKILSDRIPYLEHHHHHH | failed
MGHEAKHPIIIGITGNIGSGKSTVAALLRSWGYPVLDLDALAARARENKEEELKRLFPEAVVGGRLDRRALARLVFSDPERLKALEAVVHPEVRRLLMEELSRLEAPLVFLEIPLLFEKGWEGRLHGTLLVAAPLEERVRRVMARSGLSREEVLARERAQMPEEEKRKRATWVLENTGSLEDLERALKAVLAELTGGAKEGRG | not failed
MGHHHHHHENLYFQSHLKIMDVEGGALVDPDHIEEVETSMVIVVDDDDGDVAMVVEEDKHPMRDDPCIEDIMDDEHAPLVAELQSALNNPDDKQASEDPLLED | failed
MGHHHHHHENLYFQSHMTDFVELMNSMSSTFNSDCATSTAEGGTLLNLNLAEDKTLKWRNLANNQFASKEKKHKDKEEEERKEARNQEEIEDIKALLADVVDAAAVKLEEEEAQNAEKVEPHTKCEIEEEGRKEMEYDQDVAKQDSEMEKKQNGKATSITVKMES | not failed
MGHHHHHHSHADLPQWVSERLLQQINQLTNYEPVIGIMGKTGVGKSSLCNALFAGDISPVSDVAACTREPLRFRLQVGDRYITLMDLPGVGESGARDTEYAALYREQLPRLDLVLWLIKADDRALTVDEHFYHQVIGEVYRHKVLFVISQSDKAEPTSGGGQLSTAQKQNISRKICLLHELFQPVHPVCAVSVRLQWGLKVMAERMIKCLP | not failed
MGHHHHHHSHAHTTTSMEIFGSPEQVWQLIGGFNSLPDWLPYIPSSKLTEGGRVRHLANPDGDTIIERLEVFNDKERYYTYSIMNAPFPVTNYLSTIQVKEGTESNTSLVEWSGTFTPVEVSDEEAINLFHGIYSDGLKALQQAF | not failed
MGHHHHHHSHGQQSVSNKLLAWSGVLEWQEKPKPASVDANTKLTRSLPCQVYVNHGENLKTEQWPQKLIMQLIPQQLLTTLGPLFRNSRMVQFHFTNKDLESLKGLYRIMGNGFAGCVHFPHTAPCEVRVLMLLYSSKKKIFMGLIPYDQSGFVNGIRQVITN | not failed
MGHHHHHHSHMAAAIASSLIRQKRQAREREKSNACKCVSSPSKGKTSCDKNKLNVFSRVKLFGSKKRRRRRPEPQLKGIVTKLYSRQGYHLQLQADGTIDGTKDEDSTYTLFNLIPVGLRVVAIQGVQTKLYLAMNSEGYLYTSELFTPECKFKESVFENYYVTYSSMIYRQQQSGRGWYLGLNKEGEIMKGNHVKKNKPAAHFLPKPLKVAMYKEPSLHDLTEFSRSGSGTPTKSRSVSGVLNGGKSMSHNEST | not failed
MGHHHHHHSHMADNMTTTQIEVGPGATNATINFEAGILECYERFSWQRALDYPGQDRLHRLKRKLESRIKTHNKSEPENKRMSLEERKAIGVKMMKVLLFMDPSAGIEGFEPY | not failed
MGHHHHHHSHMAGTVVLDDVELREAQRDYLDFLDDEEDQGIYQSKVRELISDNQYRLIVNVNDLRRKNEKRANRLLNNAFEELVAFQRALKDFVASIDATYAKQYEEFYVGLEGSFGSKHVSPRTLTSCFLSCVVCVEGIVTKCSLVRPKVVRSVHYCPATKKTIERRYSDLTTLVAFPSSSVYPTKDEENNPLETEYGLSVYKDHQTITIQEMPEKAPAGQLPRSVDVILDDDLVDKAKPGDRVQVVGTYRCLPGKKGGYTSGTFRTVLIACNVKQMS | not failed
MGHHHHHHSHMAKTYDYLFKLLLIGDSGVGKTCVLFRFSEDAFNSTFISTIGIDFKIRTIELDGKRIKLQIWDTAGQERFRTITTAYYRGAMGIMLVYDITNEKSFDNIRNWIRNIEEHASADVEKMILGNKCDVNDKRQVSKERGEKLALDYGIKFMETSAKANINVENAFFTLARDIKAKMDKKLEGNSPQGSNQGVKITPDQQKRSSFFRCVLL | not failed
MGHHHHHHSHMALKDYALEKEKVKKFLQEFYQDDELGKKQFKYGNQLVRLAHREQVALYVDLDDVAEDDPELVDSICENARRYAKLFADAVQELLPQYKEREVVNKDVLDVYIEHRLMMEQRSRDPGMV | not failed
MGHHHHHHSHMATGQDRVVALVDMDCFFVQVEQRQNPHLRNKPCAVVQYKSWKGGGIIAVSYEARAFGVTRSMWADDAKKLCPDLLLAQVRESRGKANLTKYREASVEVMEIMSRFAVIERASIDEAYVDLTSAVQERLQKLQGQPISADLLPSTYIEGLPQGPTTAEETVQKEGMRKQGLFQWLDSLQIDNLTSPDLQLTVGAVIVEEMRAAIERETGFQCSAGISHNKVLAKLACGLNKPNRQTLVSHGSVPQLFSQMPIRKIRSLGGKLGASVIEILGIEYMGELTQFTESQLQSHFGEKNGSWLYAMCRGIEHDPVKPRQLP | not failed
MGHHHHHHSHMNSAEQTVTWLITLGVLESPKKTISDPEGFLQASLKDGVVLCRLLERLLPGTIEKVYPEPRSESECLSNIREFLRGCGASLRLELLFPPSQPPQHLVTTILLSASTFDANDLYQGQNFNKVLSSLVTLNKVTADIGLGSDSVCARPSSHRIKSFDSLGSQSLHTR | failed
MGHHHHHHSHMNSDSECPLSHDGYCLHDGVCMYIEALDKYACNCVVGYIGERCQYRDLKWWELR | failed
MGHHHHHHSHMQPAKEVTKASDGSLLGDLGHTPLSKKEGIKWQRPRLSRQALMRCCLVKWILSSTAPQGSDSSDSELELSTVRHQPEGLDQLQAQTKFTKKELQSLYRGFKNECPTGLVDEDTFKLIYAQFFPQGDATTYAHFLFNAFDADGNGAIHFEDFVVGLSILLRGTVHEKLKWAFNLYDINKDGYITKEEMLAIMKSIYDMMGRHTYPILREDAPAEHVERFFEKMDRNQDGVVTIEEFLEACQKDENIMSSMQLFENVI | failed
